Target: IpaD^Δ192-267 (IpaD distal domain deletion mutant) (S. flexneri) (UniProt P18013)

For “IpaD^Δ192-267 (IpaD distal domain deletion mutant) (from UniProt P18013 15-332) (natural protein)”, the stoichiometry N was 5.
